B1: HDV Ribozyme (parent)
chain: GGCCGGCAUGGUCCCAGCCUCCUCGCUGGCGCCGGCUGGGCAACAUUCCGAGGGGACCGUCCCCUCGGUAAUGGCGAAUGGGACCCA

Variants of: B1
Assay: self-cleavage, relative activity (ratio to wild type); higher = more cleavage; co-transcriptional

Going from U20A U72C to G35A C62U, the self-cleavage rises from 0.0723 to 0.665.

First: C22U A77U
Second: U20A G31A
The self-cleavage of the first is higher: 0.233 for the first, 0.155 for the second.

First: C22G G35C
Second: G10A C64G
The self-cleavage of the first is lower: 0.0978 for the first, 0.749 for the second.

C14G U65G and A8G C44A are the same in self-cleavage: 0.665 for the first, 0.665 for the second.

Going from G29U G39C to G11U G54U, the self-cleavage rises from 0.0302 to 0.422.

Compared with C21U U46C, A78C G81U is lower in self-cleavage: 0.386 for the first, 0.128 for the second.

Compared with G25C C49A, C48U G59A is higher in self-cleavage: 0.0594 for the first, 1.06 for the second.

Compared with A45G C66A, G34C U37G is lower in self-cleavage: 0.812 for the first, 0 for the second.

Compared with G28A U46G, C4A A8C is lower in self-cleavage: 0.0665 for the first, 0 for the second.

G40U C49A and C26G G68A are the same in self-cleavage: 0.787 for the first, 0.787 for the second.

First: U69A A83C
Second: C49G G74A
The self-cleavage of the first is higher: 0.499 for the first, 0.132 for the second.

Compared with C49G C64A, U46A C61U is higher in self-cleavage: 0.375 for the first, 0.61 for the second.

Going from G1A G80A to A42C A83G, the self-cleavage rises from 0.0455 to 0.129.

Compared with U23A G28C, G40U G81C is higher in self-cleavage: 0.142 for the first, 0.149 for the second.

Going from C57A C85A to C26U G35A, the self-cleavage falls from 1.05 to 0.876.

First: G11C U47A
Second: U20G A51U
The self-cleavage of the first is lower: 0.151 for the first, 0.332 for the second.

Compared with C22U C49A, G29C U37A is lower in self-cleavage: 0.665 for the first, 0.201 for the second.

Going from G35C C61G to C21G C66U, the self-cleavage falls from 0.217 to 0.0475.

Going from C41A G55A to C4U U37C, the self-cleavage falls from 0.937 to 0.772.

Compared with G25C A43U, G29A G74C is lower in self-cleavage: 0.147 for the first, 0.0831 for the second.

First: C14U C32U
Second: G53C C86A
The self-cleavage of the first is lower: 0.86 for the first, 0.866 for the second.

Going from C7U C18A to A43G G50C, the self-cleavage rises from 0 to 0.739.

Compared with C15A U37G, G6A G82C is lower in self-cleavage: 0.0755 for the first, 0 for the second.

Compared with U9C C62U, C32U G38U is lower in self-cleavage: 0.869 for the first, 0.205 for the second.

Going from A45G G82U to U27C G38C, the self-cleavage falls from 0.475 to 0.123.

Going from G10C G25A to G10C A51C, the self-cleavage rises from 0.308 to 0.665.

First: A45C C58A
Second: G55U G59U
The self-cleavage of the first is lower: 0.519 for the first, 1.02 for the second.

Going from G11C G39U to G55C A77G, the self-cleavage rises from 0 to 1.1.

Going from C7G G52C to C84A C86U, the self-cleavage rises from 0.229 to 0.719.

First: U12C C33G
Second: G25U C86U
The self-cleavage of the first is lower: 0.101 for the first, 0.108 for the second.

Going from C3U C33A to G50A A78G, the self-cleavage rises from 0.123 to 0.923.

First: A16G G59U
Second: G1C C85G
The self-cleavage of the first is higher: 1.11 for the first, 0.151 for the second.

Going from G52C C62U to C4G A70C, the self-cleavage falls from 0.987 to 0.244.

First: C7A C22A
Second: G5C G38U
The self-cleavage of the first is higher: 0.0941 for the first, 0 for the second.

Going from G59U to G53C G59A, the self-cleavage falls from 0.997 to 0.95.

Going from G31U C61U to A56C A70G, the self-cleavage rises from 0.478 to 1.05.

Going from G31U A45G to U46A G52A, the self-cleavage rises from 0.107 to 0.776.

Going from U20C C84G to G55C C84A, the self-cleavage rises from 0.0978 to 1.07.

Going from G52C G55C to C15G C58G, the self-cleavage falls from 1.03 to 0.612.

First: C13G C66U
Second: C7U G28U
The self-cleavage of the first is lower: 0.0692 for the first, 0.0712 for the second.

Compared with A71G G76C, C63U C85G is higher in self-cleavage: 0.73 for the first, 0.959 for the second.

A8U C48U gave a self-cleavage of 1.13.

— the RNAGym collection of RNA variant scans (doi:10.7554/elife.80360)
